Source: the supplement of paper PMC9732359
± gives the uncertainty stated by the source.

Experiment: protein stability index of a GFP-peptide fusion (yeast GPS) (PSI 1-4); higher = more stable; sorted into four equal gates, so the index is relative within each strain
Outline: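 The protein stability index combines read frequencies across sorting gates, each weighted by its gate number and then summed. To obtain those frequencies, a pooled yeast library of GFP fusions to tiled 17-residue yeast protein peptides, on a plasmid also expressing Cherry, was grown to mid-log phase in leucine-free medium. The cells were sorted into four equal gates by GFP/Cherry ratio before plasmid amplification by PCR and Illumina sequencing.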

Row | Sequence | protein stability index (doa10∆) | protein stability index (pdr5∆) | protein stability index (san1∆) | protein stability index (ubr1∆)
1 | ELSRIENEVENINATNT [YCS4] | 3.52 ± 0.16 | 3.11 ± 0.11 | 3.23 ± 0.053 | 3.14 ± 0.11
2 | YLIDHIKVDGAVGNLGN [RPL22B] | 2.41 ± 0.23 | 2.49 ± 0.14 | 2.53 ± 0.066 | 2.61 ± 0.24
3 | IGDDGYDLLISTLTTIS [SRB5] | 2.18 ± 0.054 | 2.1 ± 0.058 | 1.52 ± 0.085 | 2.2 ± 0.061
4 | DDVRRAAVIALGFVLLR [RPN2] | 1.86 ± 0.14 | 2.09 ± 0.075 | 1.99 ± 0.13 | 1.8 ± 0.082
5 | SLPSKLTKYKEMERIVK [SRP68] | 2.59 ± 0.055 | 2.55 ± 0.064 | 2.42 ± 0.046 | 2.86 ± 0.044
6 | ILEDDFAVALKNEPDYS [CDC53] | 3.3 ± 0.088 | 3.09 ± 0.14 | 3.24 ± 0.072 | 2.87 ± 0.12
7 | MAAALPNPTPSMINSVS [PGD1] | 1.77 ± 0.05 | 2.3 ± 0.061 | 2.05 ± 0.052 | 2.1 ± 0.045
8 | CEAAVEISKKDFVRKGG [SIR3] | 3.19 ± 0.11 | 2.9 ± 0.065 | 3.22 ± 0.068 | 3.25 ± 0.064
9 | SYANHLEESDVEDTLHV [YOR098C/NUP1] | 2.98 ± 0.082 | 2.4 ± 0.065 | 2.13 ± 0.081 | 1.97 ± 0.051
10 | KHISASIDNDFSEEKAE [YAR002W/NUP60] | 3.04 ± 0.082 | 3.02 ± 0.065 | 3.23 ± 0.066 | 2.97 ± 0.059
11 | GKLEVPGYVDIVKTSSG [RPS19A] | 3.38 ± 0.15 | 2.85 ± 0.092 | 3.19 ± 0.07 | 3.2 ± 0.06
12 | AFNRFMAESLVDLEEVM [SSN8] | 1.57 ± 0.068 | 2.4 ± 0.078 | 2.36 ± 0.17 | 1.62 ± 0.059
13 | SNSSELEPDYQAPFSTS [MED1] | 2.7 ± 0.044 | 2.97 ± 0.057 | 2.82 ± 0.073 | 3.05 ± 0.046
14 | QQFNLHEILSEPAIEEE [MED1] | 2.94 ± 0.15 | 3.1 ± 0.12 | 2.98 ± 0.17 | 3.26 ± 0.13
15 | DFREKALYIAMMTRRVV [RET1] | 1.18 ± 0.077 | 1.58 ± 0.12 |  | 1.37 ± 0.074
16 | KRSTVPLNDGFVDLVEH [YML103C/NUP188] | 3.06 ± 0.09 | 2.97 ± 0.093 | 3.37 ± 0.12 | 2.69 ± 0.053
17 | LKIIYTGLCSFDYSVIL [YJL039C/NUP192] | 1.73 ± 0.081 | 1.5 ± 0.057 | 1.6 ± 0.11 | 1.59 ± 0.071
18 | SNIDYQTLLANSDHAKF [SNF2] | 2.24 ± 0.084 | 2.28 ± 0.093 | 2.32 ± 0.11 | 2.53 ± 0.075
19 | SLNYKFTTNKSKDVSRL [SRP21] | 3.13 ± 0.12 | 3.04 ± 0.088 | 3.08 ± 0.081 | 3.14 ± 0.072
20 | DQAMEKKPSPQTIPIQI [YGR119C/NUP57] |  | 2.85 ± 0.24 |  | 
21 | DVDPIELVVFLPALCKK [RPL8A] | 2.78 ± 0.092 | 2.8 ± 0.089 | 2.64 ± 0.13 | 3.03 ± 0.057
22 | YDPKDGLYKMMEERDGA [AAR2] | 3.41 ± 0.12 | 2.94 ± 0.11 | 3.4 ± 0.092 | 
23 | LLFNNDFPLLKVLAAHT [RRP40] | 1.23 ± 0.13 | 1.25 ± 0.11 | 1.18 ± 0.12 | 1.09 ± 0.058
24 | QKRLEAGALNLASPEVK [DIS3] |  | 2.64 ± 0.18 |  | 2.82 ± 0.081
25 | LSGNSVEDVSQNAADLQ [RPL9A] | 3.31 ± 0.15 | 3.55 ± 0.15 | 2.78 ± 0.13 | 3.31 ± 0.058
26 | TLNPDLFLYKELVKAHL [RPC82] | 2.71 ± 0.079 | 2.87 ± 0.074 | 2.95 ± 0.053 | 2.42 ± 0.055
27 | IKTRTVHELSKRVHTLL [ISW2] | 1.37 ± 0.091 | 1.49 ± 0.072 | 2.18 ± 0.17 | 1.49 ± 0.049

Row | Sequence | protein stability index (doa10∆) | protein stability index (pdr5∆) | protein stability index (san1∆) | protein stability index (ubr1∆)
28 | TPEYAAEKVKVRDELRK [UBP6] | 1.28 ± 0.068 | 1.61 ± 0.083 | 1.42 ± 0.14 | 1.46 ± 0.07
29 | PLIMATCGSKGSTLNVS [RPO31] | 2.84 ± 0.12 | 2.05 ± 0.074 | 2.54 ± 0.1 | 2.23 ± 0.069
30 | TYGFLTPNLWAEQPLPV [RPS2] | 1.21 ± 0.056 | 1.38 ± 0.081 | 1.37 ± 0.11 | 1.54 ± 0.059
31 | LLKEKPNALKPLSESLR [RRP6] | 2.71 ± 0.059 | 2.83 ± 0.065 | 2.91 ± 0.077 | 2.94 ± 0.044
32 | QVYDLLKRFPKMSVTCN [BRR2] |  | 1.09 ± 0.13 |  | 
33 | SNEICDLAYQYVRALEL [SRB2] | 2.92 ± 0.047 | 2.77 ± 0.037 | 2.88 ± 0.046 | 3.08 ± 0.042
34 | TDLENSSLFQEKLLETN [ECM29] | 2.52 ± 0.096 | 2.46 ± 0.079 | 2.49 ± 0.056 | 2.68 ± 0.057
35 | ERIVVSYEYYNIKHKHT [SMC2] | 1.63 ± 0.047 | 1.86 ± 0.064 | 1.74 ± 0.11 | 1.87 ± 0.049
36 | TIRYLMQKQHEMKTQAA [SNF6] | 2.83 ± 0.049 | 2.98 ± 0.051 | 2.99 ± 0.046 | 2.9 ± 0.032
37 | INSGTFVKVTKATLELL [RPL7A] | 3.01 ± 0.1 | 2.92 ± 0.092 | 2.65 ± 0.12 | 2.9 ± 0.12
38 | LWGPHGLNSDAEEVRNF [ECM29] | 3.77 ± 0.29 | 3.59 ± 0.15 | 3.5 ± 0.27 | 3.82 ± 0.16
39 | FNYQGDELVLNFENDNE [REC8] | 2.9 ± 0.18 | 3.25 ± 0.17 | 2.79 ± 0.11 | 2.63 ± 0.068
40 | DPDIPMTIDLEPIEESS [IRR1] | 3.06 ± 0.086 | 3.45 ± 0.1 | 3.01 ± 0.13 | 3.15 ± 0.11
41 | EDMIDQVSKKLSSIEAS [SMC3] | 3.07 ± 0.16 | 2.54 ± 0.15 | 2.84 ± 0.12 | 3.05 ± 0.12
42 | LGTIESAQAETEALLLE [DIS3] | 2.92 ± 0.1 | 3.09 ± 0.092 | 3.18 ± 0.097 | 2.82 ± 0.062
43 | EASSLGYLDDSEILIIS [IRR1] | 2.1 ± 0.048 | 1.85 ± 0.037 | 1.91 ± 0.1 | 1.87 ± 0.036
44 | LMTKLNSFKLFKAEKLQ [RPC17] | 1.97 ± 0.059 | 1.88 ± 0.054 | 1.92 ± 0.06 | 1.75 ± 0.04
45 | NTPLSLPTRGTLESLEN [COR1] | 3.21 ± 0.12 | 2.37 ± 0.08 | 2.6 ± 0.27 | 2.41 ± 0.065
46 | AKGVYRPNGRKDHDLKI [POP1] | 2.88 ± 0.078 | 3.08 ± 0.052 | 2.93 ± 0.049 | 3.03 ± 0.061
47 | FVNGVWHGVHRNPARLM [RPB2] | 1.68 ± 0.11 | 1.44 ± 0.067 | 3.39 ± 0.058 | 1.5 ± 0.042
48 | KAEFSKEMTLQKNMNDL [YIL149C/MLP2] | 3.21 ± 0.053 | 3.3 ± 0.086 | 3.23 ± 0.09 | 3.07 ± 0.067
49 | AFEAELSNIPLLLITHH [ARP9] | 1.49 ± 0.071 | 1.68 ± 0.072 | 1.64 ± 0.089 | 1.58 ± 0.066
50 | FQTPFRRRREGKTDYYQ [RPL5] |  | 3.31 ± 0.12 | 2.97 ± 0.12 | 3.03 ± 0.11
51 | PQYQYQRRYVIKEKVQF [ITC1] | 1.56 ± 0.069 | 1.88 ± 0.047 | 1.79 ± 0.095 | 1.47 ± 0.03
52 | SDRSLSEDLFADGLLQV [BRR2] | 3.04 ± 0.28 |  |  | 
53 | KRLSAALSKFLTHPKYL [YML103C/NUP188] | 2.48 ± 0.072 | 2.25 ± 0.066 | 2.84 ± 0.07 | 2.91 ± 0.065
54 | NVHGSLEPFLLMLEDTD [BRR2] | 2.47 ± 0.077 | 2.63 ± 0.088 | 2.87 ± 0.11 | 2.94 ± 0.059
